Measured values as given in the supplement of paper PMC10065799, “High-throughput profiling of sequence recognition by tyrosine kinases and SH2 domains using bacterial peptide display” (eLife, 2023).

These sequences were tested on c-Abl (mouse) (assay: phosphorylation enrichment, bacterial display (enrichment ratio); higher = better substrate or ligand; peptides without Tyr show the background).
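Further: 11-residue human phosphosite peptides and single-mutation variants displayed on the E. coli surface, counted by deep sequencing, each peptide's frequency after selection divided by its frequency in the unselected input library; frequency after pTyr selection over input frequency; kinase dosed for 20-30% of maximal phosphorylation in three min.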

Sequence	phosphorylation enrichment
RVGVDYEGGGC [PLOD1_Y675]	0.239
DCPASYKKKSM [PDGFRA_Y768_R764C]	0.337

These sequences were tested against Jak2 (UniProt O60674) in the same assay as above.
Sequence of Jak2 (O60674 whole entry, looked up): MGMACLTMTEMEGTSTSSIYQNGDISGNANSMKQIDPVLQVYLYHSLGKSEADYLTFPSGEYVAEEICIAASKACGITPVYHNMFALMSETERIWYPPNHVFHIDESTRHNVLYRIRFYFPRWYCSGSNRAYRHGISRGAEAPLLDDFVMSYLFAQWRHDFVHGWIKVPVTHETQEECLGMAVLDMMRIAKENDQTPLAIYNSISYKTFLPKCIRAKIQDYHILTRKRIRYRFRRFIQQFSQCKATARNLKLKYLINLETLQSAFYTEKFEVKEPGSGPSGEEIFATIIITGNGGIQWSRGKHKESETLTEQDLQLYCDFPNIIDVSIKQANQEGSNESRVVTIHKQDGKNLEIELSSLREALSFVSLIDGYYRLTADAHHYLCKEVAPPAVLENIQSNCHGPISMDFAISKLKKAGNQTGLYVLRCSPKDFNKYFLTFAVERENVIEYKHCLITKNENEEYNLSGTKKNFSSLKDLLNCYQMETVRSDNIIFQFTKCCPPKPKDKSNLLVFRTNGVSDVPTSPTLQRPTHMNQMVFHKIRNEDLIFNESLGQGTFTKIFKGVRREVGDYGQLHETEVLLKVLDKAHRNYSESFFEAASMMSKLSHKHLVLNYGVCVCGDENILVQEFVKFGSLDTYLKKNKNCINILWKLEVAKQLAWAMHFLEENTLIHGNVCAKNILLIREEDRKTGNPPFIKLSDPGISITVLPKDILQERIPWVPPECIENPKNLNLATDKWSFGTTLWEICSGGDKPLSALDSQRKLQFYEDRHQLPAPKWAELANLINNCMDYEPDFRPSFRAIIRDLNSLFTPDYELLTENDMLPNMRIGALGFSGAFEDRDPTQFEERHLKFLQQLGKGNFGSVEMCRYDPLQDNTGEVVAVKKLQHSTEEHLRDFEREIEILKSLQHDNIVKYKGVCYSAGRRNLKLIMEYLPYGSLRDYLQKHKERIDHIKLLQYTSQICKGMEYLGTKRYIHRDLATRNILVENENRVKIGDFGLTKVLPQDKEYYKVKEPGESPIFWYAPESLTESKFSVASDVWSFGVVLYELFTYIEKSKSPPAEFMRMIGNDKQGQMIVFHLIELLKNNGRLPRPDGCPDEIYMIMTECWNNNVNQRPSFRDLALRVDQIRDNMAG

Sequence	phosphorylation enrichment
AKLKDYYIFNK [CCDC42_Y149]	0.605
FEPWVYSLSFE [PRKDC_Y647_F649L_YF]	1.34
RSDSSYRMSAT [NHS_Y1532]	0.598
TFEPNYGTVKQ [RAPGEF6_Y1447_YF]	0.488
CTTIHYNFMWN [TP53_Y234_C238W_YF]	1.5
PLDGEYFSLQI [TP53_Y327_T329S]	5.35
RTVPLYESLRK [DDB1_Y718_P721L]	0.547
LKLIQYHLTQQ [AKAP4_Y554]	1.28
LITLVYGCSRQ [TMPRSS6_Y290_S288L]	1.86
FKPENYRRLDI [VHL_Y175_V170F]	0.747
EFRFIYMAVQH [PTPN11_Y515_Q510E_YF]	1.18
YDYKKYGKGLR [ZNF445_Y433]	0.444
QLDQRYLLVPE [DDX49_Y223]	0.748
LVTAWYIGFLC [KCNQ2_Y237]	2.67
DAHFTYSRYPW [LY75_Y888_D884A]	1.02
GGSSPYSRRLP [CDK13_Y351]	0.4
ESAAIYNPVIY [RHO_Y301_K296E]	0.793
TKQLTYEEQDL [PIK3C3_Y310]	1.19
GSQERDFELVE [TSC2_Y407_Y407D]	1.07
PVADRYDQSFE [MAPK14_Y323_P322R]	1.1
YRIGPYQPSVP [MATR3_Y784_N787S]	0.524
GLDGSYLLRFS [SH2D1A_Y29_D33Y_YF]	0.843
SKNSKCNAEST [PSEN1_Y315_Y315C]	0.51
GDPTEYYSTAI [IGSF22_Y501]	0.954
TLLERYGMTKI [ACSF3_Y355_E359K]	0.625
NYAKMYCNPDA [KNL1_Y489]	1.17
LLVVLYKFRCF [PSEN1_Y154_Y159F_YF]	1.85
RVGVDYEGGGC [PLOD1_Y675]	0.377
DCPASYKKKSM [PDGFRA_Y768_R764C]	0.168

Each sequence was assayed against FGFR3 (UniProt P22607) in the same assay as above.
Sequence of FGFR3 (P22607 whole entry, looked up): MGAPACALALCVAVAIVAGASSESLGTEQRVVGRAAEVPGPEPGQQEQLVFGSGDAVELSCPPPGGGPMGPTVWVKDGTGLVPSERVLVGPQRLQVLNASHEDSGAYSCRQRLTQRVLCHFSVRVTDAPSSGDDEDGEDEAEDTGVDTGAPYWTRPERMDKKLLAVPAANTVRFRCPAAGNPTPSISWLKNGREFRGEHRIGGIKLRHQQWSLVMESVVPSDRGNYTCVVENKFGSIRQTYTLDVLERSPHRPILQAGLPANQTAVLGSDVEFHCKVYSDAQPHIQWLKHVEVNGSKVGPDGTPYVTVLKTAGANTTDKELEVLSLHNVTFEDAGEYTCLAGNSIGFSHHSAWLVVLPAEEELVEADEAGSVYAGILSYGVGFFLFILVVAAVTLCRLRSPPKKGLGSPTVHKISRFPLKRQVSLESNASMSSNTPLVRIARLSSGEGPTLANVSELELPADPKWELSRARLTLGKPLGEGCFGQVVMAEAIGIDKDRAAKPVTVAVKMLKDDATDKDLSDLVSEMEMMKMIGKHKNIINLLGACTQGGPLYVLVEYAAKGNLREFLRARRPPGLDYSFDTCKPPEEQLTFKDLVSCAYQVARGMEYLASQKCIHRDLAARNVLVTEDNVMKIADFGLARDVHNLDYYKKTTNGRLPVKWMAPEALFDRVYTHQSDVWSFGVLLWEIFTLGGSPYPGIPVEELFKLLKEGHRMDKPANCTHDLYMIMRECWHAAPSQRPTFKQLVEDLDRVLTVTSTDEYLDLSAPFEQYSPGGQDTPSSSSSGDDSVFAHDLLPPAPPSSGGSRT

Sequence	phosphorylation enrichment
AKLKDYYIFNK [CCDC42_Y149]	2.16
FEPWVYSLSFE [PRKDC_Y647_F649L_YF]	0.839
RSDSSYRMSAT [NHS_Y1532]	0.754
TFEPNYGTVKQ [RAPGEF6_Y1447_YF]	0.63
CTTIHYNFMWN [TP53_Y234_C238W_YF]	0.981
PLDGEYFSLQI [TP53_Y327_T329S]	4.26
RTVPLYESLRK [DDB1_Y718_P721L]	0.437
LKLIQYHLTQQ [AKAP4_Y554]	0.879
LITLVYGCSRQ [TMPRSS6_Y290_S288L]	0.863
FKPENYRRLDI [VHL_Y175_V170F]	0.544
EFRFIYMAVQH [PTPN11_Y515_Q510E_YF]	0.864
YDYKKYGKGLR [ZNF445_Y433]	0.536
QLDQRYLLVPE [DDX49_Y223]	0.799
LVTAWYIGFLC [KCNQ2_Y237]	1.3
DAHFTYSRYPW [LY75_Y888_D884A]	0.641
GGSSPYSRRLP [CDK13_Y351]	0.39
ESAAIYNPVIY [RHO_Y301_K296E]	1.88
TKQLTYEEQDL [PIK3C3_Y310]	0.791
GSQERDFELVE [TSC2_Y407_Y407D]	0.717
PVADRYDQSFE [MAPK14_Y323_P322R]	0.796
YRIGPYQPSVP [MATR3_Y784_N787S]	0.759
GLDGSYLLRFS [SH2D1A_Y29_D33Y_YF]	0.546
SKNSKCNAEST [PSEN1_Y315_Y315C]	0.486
GDPTEYYSTAI [IGSF22_Y501]	1.74
TLLERYGMTKI [ACSF3_Y355_E359K]	0.667
NYAKMYCNPDA [KNL1_Y489]	0.667
LLVVLYKFRCF [PSEN1_Y154_Y159F_YF]	1.56
DCPASYKKKSM [PDGFRA_Y768_R764C]	0.202

What follows are sequences tested against FGFR1 (UniProt P11362) in the same assay as above.
Sequence of FGFR1 (P11362 whole entry, looked up): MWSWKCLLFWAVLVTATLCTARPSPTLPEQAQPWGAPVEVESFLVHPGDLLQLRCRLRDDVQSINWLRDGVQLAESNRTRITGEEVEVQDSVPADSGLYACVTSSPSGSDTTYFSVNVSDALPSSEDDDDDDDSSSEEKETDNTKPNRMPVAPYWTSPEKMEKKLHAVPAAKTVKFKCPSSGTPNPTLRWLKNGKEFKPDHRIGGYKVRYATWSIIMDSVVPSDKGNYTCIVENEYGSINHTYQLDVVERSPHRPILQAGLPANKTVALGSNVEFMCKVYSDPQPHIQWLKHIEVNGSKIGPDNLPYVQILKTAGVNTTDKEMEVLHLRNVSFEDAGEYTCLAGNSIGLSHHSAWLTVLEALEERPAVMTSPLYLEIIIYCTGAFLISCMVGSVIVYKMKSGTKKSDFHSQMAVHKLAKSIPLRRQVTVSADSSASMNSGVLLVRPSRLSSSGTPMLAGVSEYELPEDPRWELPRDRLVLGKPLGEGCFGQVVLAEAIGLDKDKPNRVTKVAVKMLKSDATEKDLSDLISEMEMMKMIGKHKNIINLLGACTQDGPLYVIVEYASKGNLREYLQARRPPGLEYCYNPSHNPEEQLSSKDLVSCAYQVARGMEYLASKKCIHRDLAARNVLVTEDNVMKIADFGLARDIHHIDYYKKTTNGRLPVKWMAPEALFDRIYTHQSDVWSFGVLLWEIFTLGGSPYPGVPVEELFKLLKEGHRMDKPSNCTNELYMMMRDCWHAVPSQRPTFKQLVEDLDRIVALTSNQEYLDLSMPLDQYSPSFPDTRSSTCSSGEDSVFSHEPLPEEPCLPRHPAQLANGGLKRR

Sequence	phosphorylation enrichment
AKLKDYYIFNK [CCDC42_Y149]	3.4
FEPWVYSLSFE [PRKDC_Y647_F649L_YF]	0.598
RSDSSYRMSAT [NHS_Y1532]	0.717
TFEPNYGTVKQ [RAPGEF6_Y1447_YF]	0.471
CTTIHYNFMWN [TP53_Y234_C238W_YF]	0.621
PLDGEYFSLQI [TP53_Y327_T329S]	6.64
RTVPLYESLRK [DDB1_Y718_P721L]	0.466
LKLIQYHLTQQ [AKAP4_Y554]	0.932
LITLVYGCSRQ [TMPRSS6_Y290_S288L]	0.599
FKPENYRRLDI [VHL_Y175_V170F]	0.414
EFRFIYMAVQH [PTPN11_Y515_Q510E_YF]	0.555
YDYKKYGKGLR [ZNF445_Y433]	0.371
QLDQRYLLVPE [DDX49_Y223]	0.843
LVTAWYIGFLC [KCNQ2_Y237]	0.872
DAHFTYSRYPW [LY75_Y888_D884A]	0.716
GGSSPYSRRLP [CDK13_Y351]	0.393
ESAAIYNPVIY [RHO_Y301_K296E]	1.99
TKQLTYEEQDL [PIK3C3_Y310]	0.576
GSQERDFELVE [TSC2_Y407_Y407D]	0.489
PVADRYDQSFE [MAPK14_Y323_P322R]	0.653
YRIGPYQPSVP [MATR3_Y784_N787S]	0.749
GLDGSYLLRFS [SH2D1A_Y29_D33Y_YF]	0.385
SKNSKCNAEST [PSEN1_Y315_Y315C]	0.769
GDPTEYYSTAI [IGSF22_Y501]	2.04
TLLERYGMTKI [ACSF3_Y355_E359K]	0.513
NYAKMYCNPDA [KNL1_Y489]	0.561
LLVVLYKFRCF [PSEN1_Y154_Y159F_YF]	0.568
DCPASYKKKSM [PDGFRA_Y768_R764C]	0.416

The sequences below were run against EPHB1 (UniProt P54762) in the same assay as above.
Sequence of EPHB1 (P54762 whole entry, looked up): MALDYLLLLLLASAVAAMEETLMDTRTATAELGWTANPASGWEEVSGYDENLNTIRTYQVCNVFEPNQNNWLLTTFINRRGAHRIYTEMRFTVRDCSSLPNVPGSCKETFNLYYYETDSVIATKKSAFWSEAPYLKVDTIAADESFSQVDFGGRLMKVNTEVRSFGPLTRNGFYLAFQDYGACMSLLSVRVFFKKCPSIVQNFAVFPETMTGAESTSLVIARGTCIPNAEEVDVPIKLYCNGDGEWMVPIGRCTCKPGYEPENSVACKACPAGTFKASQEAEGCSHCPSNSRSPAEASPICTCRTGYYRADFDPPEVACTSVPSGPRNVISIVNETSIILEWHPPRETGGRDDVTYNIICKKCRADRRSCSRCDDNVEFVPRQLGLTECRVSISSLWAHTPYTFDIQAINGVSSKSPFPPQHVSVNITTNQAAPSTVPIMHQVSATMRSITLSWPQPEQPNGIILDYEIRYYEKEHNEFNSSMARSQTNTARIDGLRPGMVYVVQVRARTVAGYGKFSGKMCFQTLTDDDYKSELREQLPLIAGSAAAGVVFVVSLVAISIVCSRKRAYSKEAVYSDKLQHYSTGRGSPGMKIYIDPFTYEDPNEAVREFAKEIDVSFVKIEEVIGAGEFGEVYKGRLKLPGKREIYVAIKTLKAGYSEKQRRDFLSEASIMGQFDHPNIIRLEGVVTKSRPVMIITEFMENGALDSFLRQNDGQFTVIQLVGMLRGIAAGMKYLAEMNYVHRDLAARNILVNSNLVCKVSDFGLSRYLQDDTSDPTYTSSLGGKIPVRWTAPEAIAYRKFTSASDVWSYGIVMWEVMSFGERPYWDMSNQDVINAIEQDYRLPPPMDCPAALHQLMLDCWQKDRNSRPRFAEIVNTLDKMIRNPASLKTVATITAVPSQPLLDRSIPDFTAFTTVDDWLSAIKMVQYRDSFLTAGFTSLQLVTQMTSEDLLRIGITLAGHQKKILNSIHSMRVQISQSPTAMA

Sequence	phosphorylation enrichment
AKLKDYYIFNK [CCDC42_Y149]	0.449
FEPWVYSLSFE [PRKDC_Y647_F649L_YF]	0.607
RSDSSYRMSAT [NHS_Y1532]	0.592
TFEPNYGTVKQ [RAPGEF6_Y1447_YF]	0.582
CTTIHYNFMWN [TP53_Y234_C238W_YF]	0.725
PLDGEYFSLQI [TP53_Y327_T329S]	1.15
RTVPLYESLRK [DDB1_Y718_P721L]	23
LKLIQYHLTQQ [AKAP4_Y554]	0.88
LITLVYGCSRQ [TMPRSS6_Y290_S288L]	0.644
FKPENYRRLDI [VHL_Y175_V170F]	0.367
EFRFIYMAVQH [PTPN11_Y515_Q510E_YF]	0.881
YDYKKYGKGLR [ZNF445_Y433]	0.318
QLDQRYLLVPE [DDX49_Y223]	0.613
LVTAWYIGFLC [KCNQ2_Y237]	1.12
DAHFTYSRYPW [LY75_Y888_D884A]	2.76
GGSSPYSRRLP [CDK13_Y351]	0.327
ESAAIYNPVIY [RHO_Y301_K296E]	0.995
TKQLTYEEQDL [PIK3C3_Y310]	0.655
GSQERDFELVE [TSC2_Y407_Y407D]	0.466
PVADRYDQSFE [MAPK14_Y323_P322R]	0.475
YRIGPYQPSVP [MATR3_Y784_N787S]	0.421
GLDGSYLLRFS [SH2D1A_Y29_D33Y_YF]	0.44
SKNSKCNAEST [PSEN1_Y315_Y315C]	0.48
GDPTEYYSTAI [IGSF22_Y501]	0.598
TLLERYGMTKI [ACSF3_Y355_E359K]	0.531
NYAKMYCNPDA [KNL1_Y489]	0.673
